This assay addresses BirA*-FLAG tagged GSK-3β (UniProt P49841 1-420). In words: proximity labelling.

Chain of BirA*-FLAG tagged GSK-3β (P49841 whole entry): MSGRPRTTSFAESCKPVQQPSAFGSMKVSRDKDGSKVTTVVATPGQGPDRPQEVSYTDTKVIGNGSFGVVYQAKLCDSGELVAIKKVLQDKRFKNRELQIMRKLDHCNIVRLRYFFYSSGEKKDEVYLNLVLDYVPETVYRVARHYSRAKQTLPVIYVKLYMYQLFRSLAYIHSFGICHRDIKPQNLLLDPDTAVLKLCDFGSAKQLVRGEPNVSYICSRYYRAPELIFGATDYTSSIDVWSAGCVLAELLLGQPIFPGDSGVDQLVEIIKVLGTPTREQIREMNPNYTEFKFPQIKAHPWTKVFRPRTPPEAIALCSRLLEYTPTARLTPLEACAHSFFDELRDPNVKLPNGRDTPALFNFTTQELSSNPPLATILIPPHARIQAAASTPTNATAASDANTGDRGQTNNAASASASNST

B1: MISP (natural protein)
chain: MDRVTRYPILGIPQAHRGTGLVLDGDTSYTYHLVCMGPEASGWGQDEPQTWPTDHRAQQGVQRQGVSYSVHAYTGQPSPRGLHSENREDEGWQVYRLGARDAHQGRPTWALRPEDGEDKEMKTYRLDAGDADPRRLCDLERERWAVIQGQAVRKSSTVATLQGTPDHGDPRTPGPPRSTPLEENVVDREQIDFLAARQQFLSLEQANKGAPHSSPARGTPAGTTPGASQAPKAFNKPHLANGHVVPIKPQVKGVVREENKVRAVPTWASVQVVDDPGSLASVESPGTPKETPIEREIRLAQEREADLREQRGLRQATDHQELVEIPTRPLLTKLSLITAPRRERGRPSLYVQRDIVQETQREEDHRREGLHVGRASTPDWVSEGPQPGLRRALSSDSILSPAPDARAADPAPEVRKVNRIPPDAYQPYLSPGTPQLEFSAFGAFGKPSSLSTAEAKAATSPKATMSPRHLSESSGKPLSTKQEASKPPRGCPQANRGVVRWEYFRLRPLRFRAPDEPQQAQVPHVWGWEVAGAPALRLQKSQSSDLLERERESVLRREQEVAEERRNALFPEVFSPTPDENSDQNSRSSSQASGITGSYSVSESPFFSPIHLHSNVAWTVEDPVDSAPPGQRKKEQWYAGINPSDGINSEVLEAIRVTRHKNAMAERWESRIYASEEDD
Regarding B1, the “fold signal intensity against the GSK-3α bait (normalised to bait level)” value was approximately 4 fold.

(Values after article PMC9990120 (Journal of Proteome Research, 2023).)
